B1: Pre-B-cell leukemia transcription factor 4 (Homo sapiens), Q9BYU1 (parent)
chain: MAAPPRPAPSPPAPRRLDTSDVLQQIMAITDQSLDEAQARKHALNCHRMKPALFSVLCEIKEKTVVSIRGIQDEDPPDAQLLRLDNMLLAEGVCRPEKRGRGGAVARAGTATPGGCPNDNSIEHSDYRAKLSQIRQIYHSELEKYEQACREFTTHVTNLLQEQSRMRPVSPKEIERMVGAIHGKFSAIQMQLKQSTCEAVMTLRSRLLDARRKRRNFSKQATEVLNEYFYSHLNNPYPSEEAKEELARKGGLTISQVSNWFGNKRIRYKKNMGKFQEEATIYTGKTAVDTTEVGVPGNHASCLSTPSSGSSGPFPLPSAGDAFLTLRTLASLQPPPGGGCLQSQAQGSWQGATPQPATASPAGDPGSINSSTSN
B2: Four and a half LIM domains protein 3 (Homo sapiens), Q13643 (parent)
chain: MSESFDCAKCNESLYGRKYIQTDSGPYCVPCYDNTFANTCAECQQLIGHDSRELFYEDRHFHEGCFRCCRCQRSLADEPFTCQDSELLCNDCYCSAFSSQCSACGETVMPGSRKLEYGGQTWHEHCFLCSGCEQPLGSRSFVPDKGAHYCVPCYENKFAPRCARCSKTLTQGGVTYRDQPWHRECLVCTGCQTPLAGQQFTSRDEDPYCVACFGELFAPKCSSCKRPIVGLGGGKYVSFEDRHWHHNCFSCARCSTSLVGQGFVPDGDQVLCQGCSQAGP
partner: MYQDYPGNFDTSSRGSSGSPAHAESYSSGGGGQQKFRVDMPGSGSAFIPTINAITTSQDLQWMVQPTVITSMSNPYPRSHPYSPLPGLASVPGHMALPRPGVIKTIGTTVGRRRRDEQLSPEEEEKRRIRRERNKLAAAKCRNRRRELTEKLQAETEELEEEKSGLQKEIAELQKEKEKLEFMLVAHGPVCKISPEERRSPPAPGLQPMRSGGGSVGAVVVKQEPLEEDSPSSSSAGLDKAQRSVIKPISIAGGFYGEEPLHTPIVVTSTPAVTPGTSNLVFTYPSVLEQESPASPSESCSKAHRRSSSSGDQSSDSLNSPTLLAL
B3: Mothers against decapentaplegic homolog 4 (Homo sapiens), Q13485 (parent)
chain: MDNMSITNTPTSNDACLSIVHSLMCHRQGGESETFAKRAIESLVKKLKEKKDELDSLITAITTNGAHPSKCVTIQRTLDGRLQVAGRKGFPHVIYARLWRWPDLHKNELKHVKYCQYAFDLKCDSVCVNPYHYERVVSPGIDLSGLTLQSNAPSSMMVKDEYVHDFEGQPSLSTEGHSIQTIQHPPSNRASTETYSTPALLAPSESNATSTANFPNIPVASTSQPASILGGSHSEGLLQIASGPQPGQQQNGFTGQPATYHHNSTTTWTGSRTAPYTPNLPHHQNGHLQHHPPMPPHPGHYWPVHNELAFQPPISNHPAPEYWCSIAYFEMDVQVGETFKVPSSCPIVTVDGYVDPSGGDRFCLGQLSNVHRTEAIERARLHIGKGVQLECKGEGDVWVRCLSDHAVFVQSYYLDREAGRAPGDAVHKIYPSAYIKVFDLRQCHRQMQQQAATAQAAAAAQAAAVAGNIPGPGSVGGIAPAISLSAAAGIGVDDLRRLCILRMSFVKGWGPDYPRQSIKETPCWIEIHLHRALQLLDEVLHTMPIADPQPLD
partner: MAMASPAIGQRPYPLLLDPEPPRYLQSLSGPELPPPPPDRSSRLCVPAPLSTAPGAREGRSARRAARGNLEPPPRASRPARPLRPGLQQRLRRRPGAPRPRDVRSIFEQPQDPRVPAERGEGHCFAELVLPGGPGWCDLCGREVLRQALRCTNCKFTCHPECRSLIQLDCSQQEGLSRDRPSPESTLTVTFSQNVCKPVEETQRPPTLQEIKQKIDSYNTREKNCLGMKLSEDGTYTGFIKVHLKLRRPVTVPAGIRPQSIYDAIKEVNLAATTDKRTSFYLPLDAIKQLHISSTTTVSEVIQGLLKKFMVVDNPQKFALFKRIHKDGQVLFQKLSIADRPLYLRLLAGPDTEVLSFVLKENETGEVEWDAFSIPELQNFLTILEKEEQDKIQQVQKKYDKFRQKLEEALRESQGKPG
B4: Dual specificity protein phosphatase 21 (Homo sapiens), Q9H596 (parent)
chain: MTASASSFSSSQGVQQPSIYSFSQITRSLFLSNGVAANDKLLLSSNRITAIVNASVEVVNVFFEGIQYIKVPVTDARDSRLYDFFDPIADLIHTIDMRQGRTLLHCMAGVSRSASLCLAYLMKYHSMSLLDAHTWTKSRRPIIRPNNGFWEQLINYEFKLFNNNTVRMINSPVGNIPDIYEKDLRMMISM
B5: Chorion-specific transcription factor GCMb (Homo sapiens), O75603 (parent)
chain: MPAAAVQEAVGVCSYGMQLSWDINDPQMPQELALFDQFREWPDGYVRFIYSSDEKKAQRHLSGWAMRNTNNHNGHILKKSCLGVVVCTQACTLPDGSRLQLRPAICDKARLKQQKKACPNCHSALELIPCRGHSGYPVTNFWRLDGNAIFFQAKGVHDHPRPESKSETEARRSAIKRQMASFYQPQKKRIRESEAEENQDSSGHFSNIPPLENPEDFDIVTETSFPIPGQPCPSFPKSDVYKATCDLATFQGDKMPPFQKYSSPRIYLPRPPCSYELANPGYTNSSPYPTLYKDSTSIPNDTDWVHLNTLQCNVNSYSSYERSFDFTNKQHGWKPALGKPSLVERTNHGQFQAMATRPYYNPELPCRYLTTPPPGAPALQTVITTTTKVSYQAYQPPAMKYSDSVREVKSLSSCNYAPEDTGMSVYPEPWGPPVTVTRAASPSGPPPMKIAGDCRAIRPTVAIPHEPVSSRTDEAETWDVCLSGLGSAVSYSDRVGPFFTYNNEDF
partner: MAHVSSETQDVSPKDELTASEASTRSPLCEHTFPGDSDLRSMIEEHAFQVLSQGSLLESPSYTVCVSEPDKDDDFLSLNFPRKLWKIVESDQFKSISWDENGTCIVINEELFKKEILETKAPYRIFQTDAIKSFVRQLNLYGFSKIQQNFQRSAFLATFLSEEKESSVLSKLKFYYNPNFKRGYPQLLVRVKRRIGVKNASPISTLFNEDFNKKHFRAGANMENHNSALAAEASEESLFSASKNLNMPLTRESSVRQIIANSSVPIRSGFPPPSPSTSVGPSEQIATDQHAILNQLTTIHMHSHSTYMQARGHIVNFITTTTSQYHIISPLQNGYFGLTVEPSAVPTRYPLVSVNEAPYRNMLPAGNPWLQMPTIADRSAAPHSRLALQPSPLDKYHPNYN
B6: RING finger protein 11 (Homo sapiens), Q9Y3C5 (parent)
chain: MGNCLKSPTSDDISLLHESQSDRASFGEGTEPDQEPPPPYQEQVPVPVYHPTPSQTRLATQLTEEEQIRIAQRIGLIQHLPKGVYDPGRDGSEKKIRECVICMMDFVYGDPIRFLPCMHIYHLDCIDDWLMRSFTCPSCMEPVDAALLSSYETN
B7: Plasma alpha-L-fucosidase (Homo sapiens), Q9BTY2 (parent)
chain: MRPQELPRLAFPLLLLLLLLLPPPPCPAHSATRFDPTWESLDARQLPAWFDQAKFGIFIHWGVFSVPSFGSEWFWWYWQKEKIPKYVEFMKDNYPPSFKYEDFGPLFTAKFFNANQWADIFQASGAKYIVLTSKHHEGFTLWGSEYSWNWNAIDEGPKRDIVKELEVAIRNRTDLRFGLYYSLFEWFHPLFLEDESSSFHKRQFPVSKTLPELYELVNNYQPEVLWSDGDGGAPDQYWNSTGFLAWLYNESPVRGTVVTNDRWGAGSICKHGGFYTCSDRYNPGHLLPHKWENCMTIDKLSWGYRREAGISDYLTIEELVKQLVETVSCGGNLLMNIGPTLDGTISVVFEERLRQMGSWLKVNGEAIYETHTWRSQNDTVTPDVWYTSKPKEKLVYAIFLKWPTSGQLFLGHPKAILGATEVKLLGHGQPLNWISLEQNGIMVELPQLTIHQMPCKWGWALALTNVI

Variants of: B1
Details: with tfp11_human TFIP11, Q9UBB9
Sequence of tfp11_human TFIP11, Q9UBB9 (Q9UBB9 whole entry): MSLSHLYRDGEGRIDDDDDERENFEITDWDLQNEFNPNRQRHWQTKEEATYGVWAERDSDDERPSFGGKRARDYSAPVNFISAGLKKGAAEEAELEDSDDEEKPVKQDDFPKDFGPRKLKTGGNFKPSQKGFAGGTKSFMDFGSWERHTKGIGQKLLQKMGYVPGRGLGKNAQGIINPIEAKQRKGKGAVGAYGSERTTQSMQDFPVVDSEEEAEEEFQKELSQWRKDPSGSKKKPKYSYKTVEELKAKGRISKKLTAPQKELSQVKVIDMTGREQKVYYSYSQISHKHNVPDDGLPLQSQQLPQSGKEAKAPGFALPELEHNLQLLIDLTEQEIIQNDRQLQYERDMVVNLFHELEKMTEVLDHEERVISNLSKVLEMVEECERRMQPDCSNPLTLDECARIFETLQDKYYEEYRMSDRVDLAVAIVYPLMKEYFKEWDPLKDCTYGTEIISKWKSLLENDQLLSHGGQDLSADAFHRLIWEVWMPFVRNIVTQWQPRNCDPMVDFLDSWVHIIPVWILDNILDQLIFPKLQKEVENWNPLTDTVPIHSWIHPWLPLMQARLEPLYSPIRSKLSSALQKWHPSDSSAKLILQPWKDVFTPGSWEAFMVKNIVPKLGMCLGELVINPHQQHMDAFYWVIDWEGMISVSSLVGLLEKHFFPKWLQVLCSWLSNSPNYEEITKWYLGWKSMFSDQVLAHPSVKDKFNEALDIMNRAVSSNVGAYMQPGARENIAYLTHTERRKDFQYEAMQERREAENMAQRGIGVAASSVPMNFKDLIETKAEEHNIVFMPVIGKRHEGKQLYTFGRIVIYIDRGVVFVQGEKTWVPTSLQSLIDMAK

Row | effect of a mutation on the interaction | Variant
1 | with no effect | MAAPPRPAPSPPAPRRLDTSDVLQQIMAITDQSLDEAQARKHALNCHRMKPALFSVLCEIKEKTVVSIRGIQDEDPPDAQLLRLDNMLLAEGVCRPEKRGRGGAVARAGTATPGGCPNDNSIEHSDYRAKLSQIRQIYHSELEKYEQACREFTTHVTNLLQEQSRMRPVSPKEIERMVGAIHGKFSAIQMQLKQSTCEAVMTLRSRLLDARRKRRNFSKQATEVLNEYFYSHLNNPYPSEEAKEELARKGGLTISQVSNWFGNKRIRYKKNMGKFQEEATIYMGKTAVDTTEVGVPGNHASCLSTPSSGSSGPFPLPSAGDAFLTLRTLASLQPPPGGGCLQSQAQGSWQGATPQPATASPAGDPGSINSSTSN [T283M]

Variants of: B2
Details: with fosl2_human FOSL2, P15408

Row | effect of a mutation on the interaction | Variant
2 | with no effect | MSESFDCAKCNESLYGRKYIQTDSGPYCVPCYDNTFANTCAECQQLIGHDSRELFYEDRHFHEGCFRCCRCQRSLADEPFTCQDSELLCNDCYCSAFSSQCSACGETVMPGSRKLEYGGQTWHEHCFLCSGCEQPLGSRSFVPDKGAHYCVPCYENKFAPRCARCSKTLTQGGVTYRDQPWHRECLVCTGCQTPLAGQQFTSRDEDPYCVACFGELFAPKCSSCKHPIVGLGGGKYVSFEDRHWHHNCFSCARCSTSLVGQGFVPDGDQVLCQGCSQAGP [R226H]

Variants of: B3
Details: with rasf5_human RASSF5, Q8WWW0

Row | effect of a mutation on the interaction | Variant
3 | disrupting interaction strength | V350D
4 | disrupting interaction strength | C324R
5 | with no effect | E330K
6 | with no effect | L533R
7 | with no effect | R361C
8 | with no effect | N13S
9 | with no effect | Y353S
10 | with no effect | G352R

Variants of: B4
Details: with gors2_human GORASP2, Q9H8Y8

Row | effect of a mutation on the interaction | Variant
11 | with no effect | MTASASSFSSSQGVQQPFIYSFSQITRSLFLSNGVAANDKLLLSSNRITAIVNASVEVVNVFFEGIQYIKVPVTDARDSRLYDFFDPIADLIHTIDMRQGRTLLHCMAGVSRSASLCLAYLMKYHSMSLLDAHTWTKSRRPIIRPNNGFWEQLINYEFKLFNNNTVRMINSPVGNIPDIYEKDLRMMISM [S18F]

Variants of: B5
Details: with hsfy1_human HSFY1, Q96LI6

Row | effect of a mutation on the interaction | Variant
12 | with no effect | MPAAAVQEAVGVCSYGMQLSWDINDPQMPQELALFDQFREWPDGYVRFIYSSNEKKAQRHLSGWAMRNTNNHNGHILKKSCLGVVVCTQACTLPDGSRLQLRPAICDKARLKQQKKACPNCHSALELIPCRGHSGYPVTNFWRLDGNAIFFQAKGVHDHPRPESKSETEARRSAIKRQMASFYQPQKKRIRESEAEENQDSSGHFSNIPPLENPEDFDIVTETSFPIPGQPCPSFPKSDVYKATCDLATFQGDKMPPFQKYSSPRIYLPRPPCSYELANPGYTNSSPYPTLYKDSTSIPNDTDWVHLNTLQCNVNSYSSYERSFDFTNKQHGWKPALGKPSLVERTNHGQFQAMATRPYYNPELPCRYLTTPPPGAPALQTVITTTTKVSYQAYQPPAMKYSDSVREVKSLSSCNYAPEDTGMSVYPEPWGPPVTVTRAASPSGPPPMKIAGDCRAIRPTVAIPHEPVSSRTDEAETWDVCLSGLGSAVSYSDRVGPFFTYNNEDF [D53N]

Variants of: B6
Details: with ub2d4_human UBE2D4, Q9Y2X8
Sequence of ub2d4_human UBE2D4, Q9Y2X8 (Q9Y2X8 whole entry): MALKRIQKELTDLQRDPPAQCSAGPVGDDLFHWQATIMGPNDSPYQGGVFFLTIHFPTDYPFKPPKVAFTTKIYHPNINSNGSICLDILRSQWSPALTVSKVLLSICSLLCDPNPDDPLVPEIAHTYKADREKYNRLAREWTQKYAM

Row | effect of a mutation on the interaction | Variant
13 | with no effect | MGNCLKSPTSDDISLLHESQSDRASFGEGTEPDQEPPPPYQEQVPVPVYHPTPSQTRLATQLTEEEQIRIAQRIGLIQHLPKGVYDPGRDGSEKKIWECVICMMDFVYGDPIRFLPCMHIYHLDCIDDWLMRSFTCPSCMEPVDAALLSSYETN [R97W]

Variants of: B7
Details: with meox2_human MEOX2, P50222
Sequence of meox2_human MEOX2, P50222 (P50222 whole entry): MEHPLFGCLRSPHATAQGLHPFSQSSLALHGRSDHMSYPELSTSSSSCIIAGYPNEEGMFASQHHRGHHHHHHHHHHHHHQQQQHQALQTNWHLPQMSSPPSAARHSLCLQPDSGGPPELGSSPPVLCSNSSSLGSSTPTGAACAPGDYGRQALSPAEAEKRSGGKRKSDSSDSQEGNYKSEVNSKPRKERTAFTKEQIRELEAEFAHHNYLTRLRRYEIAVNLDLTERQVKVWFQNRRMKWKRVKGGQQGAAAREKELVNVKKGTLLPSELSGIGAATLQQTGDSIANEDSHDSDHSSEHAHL

Row | effect of a mutation on the interaction | Variant
14 | with no effect | MRPQELPRLAFPLLLLLLLLLPPPPCPAHSATRFDPTWESLDARQLPAWFDQAKFGIFIHWGVFSVPSFGSEWFWWYWQKEKIPKYVEFMKDNYPPSFKYEDFGPLFTAKFFNANQWADIFQASGAKYIVLTSKHHEGFTLWGSEYSWNWNAIDEGPKRDIVKELEVAIRNRTDLRFGLYYSLFEWFHPLFLEDESSSFHKRQFPVSKTLPELYELVNNYQPEVLWSDGDGGEPDQYWNSTGFLAWLYNESPVRGTVVTNDRWGAGSICKHGGFYTCSDRYNPGHLLPHKWENCMTIDKLSWGYRREAGISDYLTIEELVKQLVETVSCGGNLLMNIGPTLDGTISVVFEERLRQMGSWLKVNGEAIYETHTWRSQNDTVTPDVWYTSKPKEKLVYAIFLKWPTSGQLFLGHPKAILGATEVKLLGHGQPLNWISLEQNGIMVELPQLTIHQMPCKWGWALALTNVI [A233E]

— IntAct's records for PubMed 31515488
